Six substances from publication PMC3429342 can be followed below.

Test in all cases: AUC
In experiment [1] the target is Dscam1 3C.31.8 fragment containing the N-terminal 8 Ig domains (Drosophila melanogaster).
Experiment [2] addresses Dscam1 4C.31.8 fragment containing the N-terminal 8 Ig domains (Drosophila melanogaster).
Experiment [3] has as its target Dscam1 10C.27.25 fragment containing the N-terminal 8 Ig domains (Drosophila melanogaster).
Experiment [4] addresses Dscam1 11C.27.25 fragment containing the N-terminal 8 Ig domains (Drosophila melanogaster).
Experiment [5] has as its target Dscam1^3.31.8 fragment containing the N-terminal 8 Ig domains (Drosophila melanogaster).
For experiment [6], the target named is Dscam1^10.27.25 fragment containing the N-terminal 8 Ig domains (Drosophila melanogaster).

pKd: −log10 of the molar value.

As for “Dscam1 3C.31.8 fragment containing the N-terminal 8 Ig domains (domain or fragment)”, the values for the pKd in experiment [1] and in experiment [2] were less than 3.30 and 6.00, respectively.

For the substance “Dscam1 4C.31.8 fragment containing the N-terminal 8 Ig domains (domain or fragment)”, in experiment [2], the negative logarithm of the Kd (pKd) is less than 3.30.

Take “Dscam1 10C.27.25 fragment containing the N-terminal 8 Ig domains (domain or fragment)”: the figures for the pKd in experiment [3] and in experiment [4] were less than 3.30 and 5.34, respectively.

For “Dscam1 11C.27.25 fragment containing the N-terminal 8 Ig domains (domain or fragment)”, in experiment [4], the negative logarithm of the Kd (pKd) is less than 3.30.

In experiment [5], “Dscam1^3.31.8 fragment containing the N-terminal 8 Ig domains (domain or fragment)” had a negative-log Kd (pKd) of 5.67 and a stoichiometry N of 2.

In experiment [6], “Dscam1^10.27.25 fragment containing the N-terminal 8 Ig domains (domain or fragment)” had a pKd of 6.00 and a stoichiometry N of 2.

One may read the pKd as −log10 of the Kd, conventionally taken in molar units. The stoichiometry N is a count of units in the complex or per binding partner.
